{
  "source": "patent US20220332804A1",
  "about": "(CSL INNOVATION, published 2022)",
  "binders": {"B1": {"name": "RF16-242 (antibody, human IgG4 S228P, lambda, V domains shown)", "VH": "EVQLLQSGAEVKKPGESLKISCKGSGYSFTSYWIGWVRQMPGKGLEWMGIIYPGDSDTRYSPSFQGQVTISADKSISTAYLQWSSLKASDTAMYYCARRGHYGDYFDYWGQGTLVTVSS", "VL": "SYELTQPPSVSVSPGQTARITCSGDALPKKYAYWYHQKSGQAPVLVIYEDRRRPSEIPERFSGSSSGTMATLTITGAQVEDEGVYFCYSRDRAGNQRVFGGGTQLTVLG", "notes": "pH-dependent anti-C2 antibody from a phage display library"}},
  "experiment_in_all_cases": "SPR, KD relative to WT C2;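 further: biacore SPR at 37 °C, anti-C2 mAbs captured on anti-human IgG chips with alanine or serine point mutants of C2 as analyte, KD from 1:1 fit compared with wild-type C2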",
  "key": {"human C2 E450A": {"target": "T1, human C2 E450A (human, UniProt P06681 21-752)", "T1 sequence": "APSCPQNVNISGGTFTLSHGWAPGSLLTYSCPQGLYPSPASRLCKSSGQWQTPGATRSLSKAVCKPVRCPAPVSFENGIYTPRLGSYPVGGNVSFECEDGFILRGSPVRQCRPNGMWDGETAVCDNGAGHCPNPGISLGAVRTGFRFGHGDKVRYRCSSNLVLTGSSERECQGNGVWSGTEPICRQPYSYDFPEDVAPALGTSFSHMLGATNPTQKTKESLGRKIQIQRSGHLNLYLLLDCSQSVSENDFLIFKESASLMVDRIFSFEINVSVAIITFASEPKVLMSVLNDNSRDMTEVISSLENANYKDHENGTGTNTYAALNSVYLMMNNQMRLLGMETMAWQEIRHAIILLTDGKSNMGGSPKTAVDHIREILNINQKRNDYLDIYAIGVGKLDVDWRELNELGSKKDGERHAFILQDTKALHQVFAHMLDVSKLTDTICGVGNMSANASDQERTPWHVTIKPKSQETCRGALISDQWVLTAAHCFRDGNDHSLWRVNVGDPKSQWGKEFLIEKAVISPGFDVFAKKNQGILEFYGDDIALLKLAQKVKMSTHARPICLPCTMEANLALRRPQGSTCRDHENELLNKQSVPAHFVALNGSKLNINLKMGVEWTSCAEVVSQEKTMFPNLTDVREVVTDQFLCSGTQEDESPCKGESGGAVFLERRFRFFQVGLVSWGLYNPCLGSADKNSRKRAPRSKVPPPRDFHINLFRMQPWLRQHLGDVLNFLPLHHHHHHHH", "procedure": "(§1) Surface plasmon resonance (SPR, Biacore) was used for all binding affinity analyses. In brief, goat anti-human IgG was directly immobilised onto the carboxymethyl dextran surface of CM5 sensorchips to approximately 12,000 RU using standard NHS/EDC chemistry at pH 5. The immobilised antibody surface was pre-conditioned with ten injections of polyclonal human IgG (Privigen 60 s) prepared at 1 μg/mL. Ligands (anti-C2 mAbs) were captured at the beginning of each cycle as described below. An adjacent spot or flow cell in which only Polyclonal IgG was capture was used as a reference surface. The goat anti-human IgG Fc antibody surface was regenerate in 100 mM H3PO4, injected for 45 seconds at the end of each cycle. Experiments were performed at 37° C. and the flow rate of each experiment was kept constant at 30 μL/min.\n(§2) Sensogram data was double-referenced against a reference anti-IgG surface (i.e. minus anti-C2 mAb) and blank buffer injections obtained within each experiment. The binding data was fit to 1:1 (kinetic or steady-state) model using local Rmax and null refraction index (RI=0) when appropriate. Buffers and solutions were filtered (0.22 μm) prior to use."}, "human C2 H435A": {"target": "T2, human C2 H435A (human, UniProt P06681 21-752)", "T2 sequence": "T1 sequence with H415A, A430E", "procedure": "as §1, §2"}, "human C2 N467A": {"target": "T3, human C2 N467A (human, UniProt P06681 21-752)", "T3 sequence": "T1 sequence with A430E, N447A", "procedure": "as §1, §2"}, "human C2 E433A": {"target": "T4, human C2 E433A (human, UniProt P06681 21-752)", "T4 sequence": "T1 sequence with E413A, A430E", "procedure": "as §1, §2"}},
  "note": "Numbering of substitutions follows the chain as printed.",
  "data": [
    {"binder": "B1", "values": [
      {"measurement": "Fold diff", "setting": "human C2 E450A", "result": 3, "unit": "fold"},
      {"measurement": "Fold diff", "setting": "human C2 H435A", "result": 9, "unit": "fold"},
      {"measurement": "Fold diff", "setting": "human C2 N467A", "result": 2, "unit": "fold"},
      {"measurement": "Fold diff", "setting": "human C2 E433A", "result": 0, "unit": "fold"}
    ]}
  ]
}
